# Measurements taken from patent US20120177571A1, “PANCREATIC ENDOCRINE CELL INDICATING AGENT AND UTILIZATION OF SAME” (RIKEN, priority 2009, published 2012).
# System: pancreatic beta cells
# Conditions: in vivo, 70 mg/kg
# Method: 70 mg of Streptozotocin (STZ), which is selectively toxic to the pancreatic beta cells, was intraperitoneally administered to a rat per kilogram of the weight of the rat. Thus, a diabetic rat whose pancreatic beta cells were damaged was prepared. Next, ^68Ga-DOTA-octreotide (PET probe) was intravenously administered to the model rat in accordance with the method in Example 1. Next, in accordance with the method in Example 1, the abdomen of the model rat was scanned with the use of a PET and image reconstruction was performed. […] Further, as in Example 1, organs etc. were removed from the model rat after the scan, and radioactivity in each of the organs etc. was quantified.
compound,measurement,value
"C[C@@H](O)[C@@H]1NC(=O)[C@H](CCCCN)NC(=O)[C@@H](Cc2c[nH]c3ccccc23)NC(=O)[C@H](Cc2ccccc2)NC(=O)[C@@H](NC(=O)[C@@H](Cc2ccccc2)NC(=O)CN2CCN(CC(=O)O)CCN(CC(=O)O)CCN(CC(=O)O)CC2)CSSC[C@@H](C(=O)N[C@H](CO)[C@@H](C)O)NC1=O [^68Ga-DOTA-octreotide, metal not drawn]","accumulation of the PET probe in kidney and liver (PET image), diabetic model rat",observed
